Test: yeast display, Sf9 membrane polyspecificity reagent, FACS + sequencing; frameworks hold sequencing errors
In short: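 A nanobody's polyreactivity label depends on the gate it was sorted from. Yeast display cells were stained with 10% biotinylated, detergent-solubilized Sf9 membrane reagent for 1 hour at 4 °C, enriched on streptavidin microbeads and sorted by FACS. The low and high (top ~1%) gates were set on anti-HA fluorescence for expression and streptavidin fluorescence for reagent binding.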

| Sequence | polyreactivity (PSR sort gate) |
| --- | --- |
| QVQLVESGGGLLQAGGSLRLSCAASGRTLVSYAMGWYRQAPGKERELVATISWSGGSTYYADSVKGRFTISRDTAKNTVYLQIYSLKPEDTAGYDCNRSLTGYDELGYPVPYTYDYWGQGTQVTVSS | low polyreactivity |
| QVQLVESGGGLVQAGGSLRLSCAASGFTFGFNTMGWYRQAPGKERELVATITSGGSTYYADSVKGRFTISRDNAKNTVYLQMNILKPEDTAVYYCAATAGSPWAKSRYGYWGQGTQVTVSS | low polyreactivity |
| QVQLVESGGGLVQAGGSLRLTSAASGRTFTSNVMGWYSQAPGKEWEVVAAISSSGGRTYYADSVKGRFTISRDNAKNTVYLQMNSLKPEDTAVYYCAGDGDPEYPRYGYWGKGTQVTVSS | high polyreactivity |
| QVQLLESGGGLDQAGGSLRLSSAASGRTFGRNAMGWYRQAPGERELVAVISRGGSTYYADSVKGRFTISRDNAKNTVYLQMNSLKPEDTAVYYCNADTVYTRTAPYDYWGQGTQVTVSS | low polyreactivity |
| QVQLVESGGGLVQAGGSLRLSCAASGIIFGTYAMGWYRQAPGKERELVAAISSGGRTYYADSVKGRFTISRDNAKNTVYLQMNSLKPEDTAVYYCNRPPWSRGSNYWGQGTQVTVSS | high polyreactivity |
| QVQLVESGGGLVQAGGSLRLSCAASGRILVYYAMGWYRQATGKERELVAAITASGASTYYADSVKGRFTISRDNAKKTVYLQMNSLKPEDTAVYYCKVLYPRKYWQVREYYWGQGTQVTVSS | high polyreactivity |
| QVQLVESGGGLVQAGGTLRLSCAASGRIFFSYAMGWYRQAPGKERELVAAITYSGGSTYYADSVKGRFTISRDNAKNTVYLQKNSLKPEDTAVYYCNAELYEKYDYWGQGTQVTLSS | low polyreactivity |
| QVQLLESGGGLVPAGGSLRLSWAASGSTLYDYTMGWYRQAPGKERELVAAIRVSGARTFYADSVKGRFTISRDNAKNTVYLQRNSLKPEDTAVYYCAARWYIANPLSPSDYWGQGTQVTVSS | low polyreactivity |
| QVQLVESGGGLVQAGGSLRLSCAASGNIFGSYAMGWYRQAPGKERELVAAIRTSGGSTYYADSVKGRFTISRDNAKNTVYLQMNSLKPEDTAVYYCATRSRTTKIVRWPGMYYWGQGTQVTVSS | high polyreactivity |
| QVQIVESGGGLLQAGGSLRLSCAASGRIFPANAMGWYREAPGKERELGAAIDYDGGSTYYADSVKGRFTISRDNAKNTVYLQRNSLKPVDNGVFYCDKSLTFYSWRDYGYWGQGTQVTVSS | high polyreactivity |
| QDQLVESGGGLVQAGGSLRLTSAASGRIFTIYAMGWYRQPPGKDRELVAAISDRGTRTYYADSVKGRFTISRDIAKNTVYLQMNSLKPEDTAVNYCSTDALYTYGYDYWGQGTQVTVSS | low polyreactivity |
| QVQLVDSGGGLVQAGGSLRLSCAASGIIFHFNDLGLYIQAPGKERELVAAIDSTGSTNYSDSVKGRYTISRDNAKITVYLQLNRVKPEDTAVYNCAVLNHRVDAVLTRYYYWGQGTKVTVSS | low polyreactivity |
| QVQLVESGGGLVQAGGSLRLSCAASGSTFSYNAKGWYRQAPGKERELANYADSVKGRFTISRDKAKNTVYLQMNSLKPEDTAVYYCAAVGFSYYVIRFDYWGQGTQVTVSS | low polyreactivity |
| QVQLVESGGGLVQAGGSLRLSCAASGSIFYYNTMAWYRQAPGKERELVAAIRQRGTSTYYADSVKGRFTISRDNAKNTVYLLMISLKPEDTAVYYCAAVTRGQSAYSYDYWGQGTKVTVSS | high polyreactivity |
| QVQLVESGGGLVQAGGSLRLSCAASGFTFDIYAMGWYRQAPGKERELVADITSGGSTDYADSVKGRFTISRDNAKNTVYLQMNSLKPEDTAVFYCNAAVFYEPEWQYDYWGQGTQVTVSS | low polyreactivity |
| QVQLVESGGGLVQAGGRLRLSCAPSGNIFRYYVMGWYRPAPGKEREFLAAITSSGGSTYYADSVKGRFTISRDNAKNTVYLKINSLKPEDTEVYYCAKDYWDPGWAEYDYWGQGTQVTVSS | low polyreactivity |
| QVQLVETGGGLVQAGGSLRLSCAASGLTSLGNAMGGYRQAPGKERELVAAITRTVTSTYYADSVKGRFTISRDTAKNTVYLQMNSLKPEDTAVYYCAADWWYGYSNYDYWGQGTEVTVSS | low polyreactivity |
